According to patent US20250223358A1 (ANTENGENE BIOLOGICS, published 2025):
Read-outs that look alike come from different tables or passages of the source.

What was measured:
human CD3 [1] = target: T1, human CD3 (human, UniProt P07766 23-207; P04234 22-171; P09693 23-182); assay: FACS on Jurkat cells; on FACS MFI: test concentration or dose not given here
T1 construct: whole, on cells; also called hCD3; CD3 on Jurkat cells

human CD3 [2] = target: T1, human CD3; assay: cell-based or functional assay
human CD3 [3] = target: T1, human CD3; assay: cell-based or functional assay; remark: listed apart in the source
human CD3 [4] = target: T1, human CD3; assay: cell-based or functional assay; remark: listed apart in the source
human CD3 [5] = target: T1, human CD3; assay: FACS on Jurkat cells; remark: listed apart in the source; on FACS MFI: test concentration or dose not given here
human CD3 [6] = target: T1, human CD3; assay: FACS on Jurkat cells; remark: listed apart in the source; on FACS MFI: test concentration or dose not given here
human CD3 [7] = target: T1, human CD3; assay: FACS on Jurkat cells; remark: listed apart in the source; on FACS MFI: test concentration or dose not given here
cynomolgus CD3 = target: T2, cynomolgus CD3 (cynomolgus (Macaca fascicularis), UniProt Q95LI5 22-198; Q95LI8 22-171; Q95LI7 23-181); assay: FACS on 293F-cynoCD3mix cells; further: test concentration or dose not given here
T2 construct: whole, on cells; composition of the 'mix' not defined; also called cynoCD3
T2 sequence (Q95LI5 22-198, chain 1 of 3): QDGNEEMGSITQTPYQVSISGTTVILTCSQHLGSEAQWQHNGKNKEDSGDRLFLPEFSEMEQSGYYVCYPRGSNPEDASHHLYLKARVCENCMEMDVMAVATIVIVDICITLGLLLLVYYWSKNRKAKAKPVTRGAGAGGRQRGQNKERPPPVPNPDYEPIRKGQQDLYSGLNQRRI
T2 sequence (Q95LI8 22-171, chain 2 of 3): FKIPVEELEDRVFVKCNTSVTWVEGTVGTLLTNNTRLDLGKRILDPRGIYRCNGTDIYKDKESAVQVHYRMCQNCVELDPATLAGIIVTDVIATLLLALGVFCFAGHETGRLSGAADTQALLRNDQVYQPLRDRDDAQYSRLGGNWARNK
T2 sequence (Q95LI7 23-181, chain 3 of 3): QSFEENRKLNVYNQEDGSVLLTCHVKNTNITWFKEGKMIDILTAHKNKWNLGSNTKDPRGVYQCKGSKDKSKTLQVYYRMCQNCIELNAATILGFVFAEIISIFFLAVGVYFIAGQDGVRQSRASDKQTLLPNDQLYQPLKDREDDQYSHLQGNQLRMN

T1 sequence (P07766 23-207, chain 1 of 3): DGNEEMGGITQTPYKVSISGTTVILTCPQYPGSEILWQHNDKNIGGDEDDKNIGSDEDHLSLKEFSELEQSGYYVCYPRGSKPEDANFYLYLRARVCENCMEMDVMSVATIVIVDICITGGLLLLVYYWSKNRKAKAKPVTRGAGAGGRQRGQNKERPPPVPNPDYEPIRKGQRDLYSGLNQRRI
T1 sequence (P04234 22-171, chain 2 of 3): as the sequence (Q95LI8 22-171, chain 2 of 3) above, with V5I, K15N, V20I, T32S, N33D, N34I, A64T, N74S, L83V, R141H counted along it
T1 sequence (P09693 23-182, chain 3 of 3): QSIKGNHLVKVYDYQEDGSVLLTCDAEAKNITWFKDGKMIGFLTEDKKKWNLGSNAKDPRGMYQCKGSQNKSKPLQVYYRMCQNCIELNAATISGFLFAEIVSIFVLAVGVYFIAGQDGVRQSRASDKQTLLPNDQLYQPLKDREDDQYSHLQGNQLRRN

B1: ch40-C12-C10-E9 (antibody, V domains shown)
VH: EVQLQLSGPELVKPGASVKMSCKASGYTFSSYVIHWVKQKPGQGLEWIGYINPYNDVIKYNEKFKGKATLTSDKSSSTAYMELSSLTSEDSAVYYCARDSYYSYDGFAYWGQGTLVTVSA
VL: QIVLTQSPAIMSASPGEKVTMTCSASSSVSYMHWYQQKSGTSPKRWIYDTSKLASGVPARFSGSGSGTSYSLTISSMEAEDAATYYCQQWSSNPPTFGGGTKVEIK
With B1 the EC50 (human CD3 [1]) was 1.01 nM, the “Top FACS signal” value (human CD3 [1]) was 2540 and the “EC50_Fold change (Jurkat-NFAT-luciferase activation, normalized to ch40-C12-C10-E9)” value (human CD3 [2]) was 1 fold. The “Top FACS signal_Fold change (Jurkat-NFAT-luciferase activation, normalized to ch40-C12-C10-E9)” value (human CD3 [2]) was 1 fold, the “EC50 (activation of Jurkat-NFAT-Luc cells)” value (human CD3 [3]) was 24.2 nM and the “Top FACS signal (activation of Jurkat-NFAT-Luc cells)” value (human CD3 [3]) was 810. The “EC50_Fold change (Jurkat-NFAT-luciferase activation, normalized to ch40-C12-C10-E9)” value (human CD3 [4]) was 1 fold, the “Top signal_Fold change (Jurkat-NFAT-luciferase activation, normalized to ch40-C12-C10-E9)” value (human CD3 [4]) was 1 fold and the EC50 (human CD3 [5]) was 0.41 nM. For the same binder, the “Top FACS signal” value (human CD3 [5]) was 2940, the EC50 (human CD3 [6]) was 0.45 nM and the “Top FACS signal” value (human CD3 [6]) was 1620.

B2: 147E11E2 (antibody, V domains shown)
VH: QVQLQQPGTELVKPGTSVKLSCKASGYTFTSYWMHWVKQRPGQGLEWIGNINPSNGATNYNEKFKSKATLTVDKSSSTAYMQLSSLTSEDSAVYYCARDRSSQYYFDYWGQGTTLTVSS
VL: DIVMSQSPSSLAVSAGEKVTMSCKSSQSLLNSRSRKNYLAWYQQKPGQSPKLLIYWASTRESGVPDRFTGSGSGTDFTLTISSVQAEDLAVYYCTQSYTLRTFGGGTKLEIK
notes: mouse monoclonal (hybridoma) antibody
In the case of B2, the “FACS MFI” value (human CD3 [7]) is reported as 2450 MFI and the “FACS MFI” value (cynomolgus CD3) is reported as 2530 MFI.

B3: ch8-B12-F9-B11 (antibody, V domains shown)
VH: EVQLVESGGGIVKPGGSRKLSCAASGFTFSDYGMHWVRQAPEKGLEWIAYISSASGKIYYADTVKGRFTISRDNAKNILFLQMTSLRSEDTAMYYCARVLRWSVNYVMDYWGQGTSVTVSS
VL: DIVMTQSPSSLAVSAGEKVTMNCESSQSVLYSSNQKNYLAWYQQKPGQSPKLLIYWASTRESGVPDRFTGTGSGTDFTLTISSVQAEDLAVYYCHQYLSSWTFGGGTKLEIK
With B3 the EC50 (human CD3 [1]) was 18 nM, the “Top FACS signal” value (human CD3 [1]) was 2720 and the “EC50 (activation of Jurkat-NFAT-Luc cells)” value (human CD3 [3]) was 11.3 nM. The “Top FACS signal (activation of Jurkat-NFAT-Luc cells)” value (human CD3 [3]) was 457.
